According to US20180037644A1 (Pfizer, published 2018):
Like-named read-outs stand apart in the source and are kept apart here.

Tests used:
human IL-33 WT (R&D) [1] = target: T1, human IL-33 WT (R&D) (human, UniProt O95760 112-270); test: cell-based or functional assay
T1 sequence: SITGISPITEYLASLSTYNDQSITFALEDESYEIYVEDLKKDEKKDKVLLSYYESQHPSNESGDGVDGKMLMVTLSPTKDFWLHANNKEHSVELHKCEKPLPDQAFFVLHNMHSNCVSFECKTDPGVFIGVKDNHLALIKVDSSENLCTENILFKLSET

human IL-33 (mm2) [2] = target: T2, human IL-33 (mm2) (human, UniProt O95760 112-270); test: cell-based or functional assay
T2 chain: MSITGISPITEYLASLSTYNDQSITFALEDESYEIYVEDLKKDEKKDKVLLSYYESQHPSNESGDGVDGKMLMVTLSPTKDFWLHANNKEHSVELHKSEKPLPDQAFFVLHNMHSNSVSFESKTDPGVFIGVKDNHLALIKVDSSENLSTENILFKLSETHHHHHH

human IL-33 (mm2) [3] = target: T2, human IL-33 (mm2); test: cell-based or functional assay
[4] = target: T3, cynomolgus monkey IL-33 (cys mut) (cynomolgus monkey); test: cell-based or functional assay
T3 chain: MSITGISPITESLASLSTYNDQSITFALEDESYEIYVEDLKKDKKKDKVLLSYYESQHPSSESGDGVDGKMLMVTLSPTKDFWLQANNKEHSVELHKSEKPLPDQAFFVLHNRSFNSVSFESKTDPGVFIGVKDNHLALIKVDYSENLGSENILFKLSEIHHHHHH

human IL-33 WT (R&D) [5] = target: T1, human IL-33 WT (R&D); test: cell-based or functional assay; remark: listed apart in the source
human IL-33 (mm2) [6] = target: T2, human IL-33 (mm2); test: cell-based or functional assay
[7] = target: T3, cynomolgus monkey IL-33 (cys mut); test: cell-based or functional assay
human IL-33 WT (R&D) [8] = target: T1, human IL-33 WT (R&D); test: cell-based or functional assay; remark: listed apart in the source
[9] = target: T4, wild-type cynomolgus monkey IL-33 (cynomolgus monkey); test: cell-based or functional assay
T4 chain: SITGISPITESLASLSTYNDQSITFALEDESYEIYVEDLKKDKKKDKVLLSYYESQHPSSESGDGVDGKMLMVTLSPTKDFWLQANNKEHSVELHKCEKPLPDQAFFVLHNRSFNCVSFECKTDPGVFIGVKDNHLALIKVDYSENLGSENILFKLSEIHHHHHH

human IL-33 (mm2) [10] = target: T2, human IL-33 (mm2); test: cell-based or functional assay
[11] = target: T3, cynomolgus monkey IL-33 (cys mut); test: cell-based or functional assay
human IL-33 WT (R&D) [12] = target: T1, human IL-33 WT (R&D); test: cell-based or functional assay; remark: listed apart in the source
[13] = target: T4, wild-type cynomolgus monkey IL-33; test: cell-based or functional assay
human IL-33 (mm2) [14] = target: T2, human IL-33 (mm2); test: cell-based or functional assay
human IL-33 WT (R&D) [15] = target: T1, human IL-33 WT (R&D); test: cell-based or functional assay; remark: listed apart in the source
human IL-33 (mm2) [16] = target: T2, human IL-33 (mm2); test: cell-based or functional assay
human IL-33 WT (R&D) [17] = target: T1, human IL-33 WT (R&D); test: Octet, captured on anti-Fc tip; IL-33 premixed with IL33-158LS (competitor)

B1: IL33-158LS (antibody, human IgG1, kappa)
heavy: EVQLVESGGGLVQPGGSLRLSCAASGFTFSSYWMYWVRQAPGKGLEWVAAITPNAGEDYYPESVKGRFTISRDNAKNSLYLQMNSLRAEDTAVYYCARGHYYYTSYSLGYWGQGTLVTVSSASTKGPSVFPLAPSSKSTSGGTAALGCLVKDYFPEPVTVSWNSGALTSGVHTFPAVLQSSGLYSLSSVVTVPSSSLGTQTYICNVNHKPSNTKVDKKVEPKSCDKTHTCPPCPAPEAAGAPSVFLFPPKPKDTLMISRTPEVTCVVVDVSHEDPEVKFNWYVDGVEVHNAKTKPREEQYNSTYRVVSVLTVLHQDWLNGKEYKCKVSNKALPAPIEKTISKAKGQPREPQVYTLPPSREEMTKNQVSLTCLVKGFYPSDIAVEWESNGQPENNYKTTPPVLDSDGSFFLYSKLTVDKSRWQQGNVFSCSVLHEALHSHYTQKSLSLSPG
light: DIQMTQSPSSLSASVGDRVTITCKASQNINKHLDWYQQKPGKAPKLLIYFTNNLQTGVPSRFSGSGSGTDFTLTISSLQPEDFATYYCFQYNQGWTFGGGTKVEIKRTVAAPSVFIFPPSDEQLKSGTASVVCLLNNFYPREAKVQWKVDNALQSGNSQESVTEQDSKDSTYSLSSTLTLSKADYEKHKVYACEVTHQGLSSPVTKSFNRGEC
- IC50, HEK293 ST2 NFkB (human IL-33 WT (R&D) [1]): 2.66 nM
- IC50, HEK293 ST2 NFkB (human IL-33 (mm2) [2]): 0.079 nM
- IC50, IFN-γ production in human PBMC (human IL-33 (mm2) [3]): 0.0014 nM
- IC50, HEK293 ST2 NFkB [4]: 0.198 nM
- IC50, HEK293 ST2 NFkB (human IL-33 WT (R&D) [5]): 0.983 nM
- IC50, HEK293 ST2 NFkB (human IL-33 (mm2) [6]): 0.162 nM
- Cynomolgus monkey:human IC50 ratio: cysteine mutant IL-33 [7]: 1.8
- IC50, HEK293 ST2 NFkB [7]: 0.034 nM
- IC50, HEK293 ST2 NFkB (DTT-pretreated IL-33) (human IL-33 WT (R&D) [8]): 0.331 nM
- Cynomolgus monkey:human IC50 ratio: wild-type IL-33 [9]: 4.2
- IC50, HEK293 ST2 NFkB (DTT-pretreated IL-33) [9]: 1.39 nM
- IC50, HEK293 ST2 NFkB (human IL-33 (mm2) [10]): 0.019 nM
- Cynomolgus monkey:human IC50 ratio: cysteine mutant IL-33 [11]: 1.4
- IC50, HEK293 ST2 NFkB [11]: 0.013 nM
- IC50, HEK293 ST2 NFkB (human IL-33 WT (R&D) [12]): 0.061 nM
- Cynomolgus monkey:human IC50 ratio: wild-type IL-33 [13]: 9.2
- IC50, HEK293 ST2 NFkB [13]: 0.562 nM
- IC50, HEK293 ST2 NFkB (human IL-33 (mm2) [14]): 0.009 nM
- IC50, human whole blood (human IL-33 WT (R&D) [15]): 0.868 nM
- IC50, human whole blood (human IL-33 (mm2) [16]): 0.021 nM

B2: IL33-271 (antibody, human IgG1, kappa, V domains shown)
VH: QVLLVQSGAEVKKPGATVKVSCKASGSTFTGYYMHWVRQAPGQGLEWMGWINPNNGGTNYAQKFQGRVTMTRDTSISTAYMELSRLRSDDTAVYYCARELRYNWKSWGQGTLVTVSS
VL: EIVLTQSPGTLSLSPGERVTLSCRASQSVGRPYLAWYQQIPGQAPRLLIYGASSRATDIPDRFSGNGSGTDFTLTISRLEPEDFAVYYCQQYDNSPYTFGQGTRLEIKR
notes: also called control non-neutralizing anti-IL-33 antibody
- binding result (human IL-33 WT (R&D) [17]): binds
